# Measurements taken from patent US20040259075A1 (US Dept. of Health and Human Services, published 2004).
# Assays:
# sCD4-gp120 89.6 complex = biological target: T1, sCD4-gp120 89.6 complex (HIV-1 89.6, UniProt Q73372 32-508; P01730 26-208); assay: ELISA, antigen coated, Langmuir isotherm fit (FIG. 2)
# T1 construct: domain: gp120;domain: two-domain soluble CD4 (D1D2)
# gp120 89.6 [1] = biological target: T2, gp120 89.6 (HIV-1 89.6, UniProt Q73372 32-508); assay: as above
# T2 construct: domain: gp120
# [2] = biological target: T3, protein G cross-linked to Sepharose beads; assay: binding to protein G cross-linked to Sepharose beads; method not stated
# T3 construct: also called protein G beads; Protein G-Sepharose beads
# [3] = biological target: T4, gp120-CD4-CCR5 complex (JRFL gp120) used for the X5 selection (HIV-1 JRFL); assay: binding to the complex used for selection; method not stated
# gp120JRFL+sCD4 complex = biological target: T5, gp120JRFL+sCD4 complex (HIV-1 JRFL); assay: ELISA, antigen coated (FIG. 1)
# T5 construct: domain: gp120;domain: two-domain soluble CD4 (D1D2)
# gp120 JRFL = gp120 JRFL (HIV-1 JRFL, UniProt P20871 32-503); assay: ELISA, antigen coated (FIG. 1)
# gp120 89.6 [4] = biological target: T2, gp120 89.6; assay: ELISA, antigen coated, Langmuir isotherm fit (FIG. 2 legend)
# [5] = biological target: T3, protein G cross-linked to Sepharose …; assay: effective affinity of phage for beads; reference is the gp120-CD4-CCR5 complex
# [6] = biological target: T4, gp120-CD4-CCR5 complex (JRFL gp120) …; assay: effective affinity of phage for the bead-bound complex; method not stated
# [7] = biological target: T3, protein G cross-linked to Sepharose …; assay: effective affinity of phage for protein G beads; method not stated
Binder,Kd (sCD4-gp120 89.6 complex),Kd (gp120 89.6 [1]),Kd [2],Kd [3],Kd (gp120JRFL+sCD4 complex),Kd (gp120 JRFL),Kd (gp120 89.6 [4]),fold lower effective affinity than for the gp120-CD4-CCR5 complex [5],Kd [6],Kd [7]
"X5 Fab (Fab, also called Fab X5; antibody Fab fragment X5) heavy: EVQLLEQSGAEVKKPGSSVQVSCKASGGTFSMYGFNWVRQAPGHGLEWMGGIIPIFGTSNYAQKFRGRVTFTADQATSTAYMELTNLRSDDTAVYYCARDFGPDWEDGDSYDGSGRGFFDFWGQGTLVTVSSASTKGPSVFPLAPSSKSTSGGTAALGCLVKDYFPEPVTVSWNSGALTSGVHTFPAVLQSSGLYSLSSVVTVPSSSLGTQTYICNVNHKPSNTKVDKKVEPKSCDKTS light: AELVLTQSPGTLSLSAGERATLSCRASQSVSSGSLAWYQQKPGQAPRLLIYGASTRATGIPDRFSGSGSGTDFTLTIGRLEPEDLAVYYCQQYGTSPYTFGQGTKLEIKRTVAAPSVFIFPPSDEQLKSGTASVVCLLNNFYPREAKVQWKVDNALQSGNSQESVTEHDSRDSTYSLGSTLTLSKADYEKHKVYACEVTHQGLSSPVTKSFNRGEC",1 nM,9.4 nM,15 nM,1 nM,2 nM,10 nM,9.3 nM,–,–,–
"Phage-displayed X5 (Fab, also called phage X5; not shown: phage gene III fragment of the phagemid) heavy: EVQLLEQSGAEVKKPGSSVQVSCKASGGTFSMYGFNWVRQAPGHGLEWMGGIIPIFGTSNYAQKFRGRVTFTADQATSTAYMELTNLRSDDTAVYYCARDFGPDWEDGDSYDGSGRGFFDFWGQGTLVTVSSASTKGPSVFPLAPSSKSTSGGTAALGCLVKDYFPEPVTVSWNSGALTSGVHTFPAVLQSSGLYSLSSVVTVPSSSLGTQTYICNVNHKPSNTKVDKKVEPKSCDKTS light: AELVLTQSPGTLSLSAGERATLSCRASQSVSSGSLAWYQQKPGQAPRLLIYGASTRATGIPDRFSGSGSGTDFTLTIGRLEPEDLAVYYCQQYGTSPYTFGQGTKLEIKRTVAAPSVFIFPPSDEQLKSGTASVVCLLNNFYPREAKVQWKVDNALQSGNSQESVTEHDSRDSTYSLGSTLTLSKADYEKHKVYACEVTHQGLSSPVTKSFNRGEC",–,–,–,–,–,–,–,15 fold,0.09 nM,1.4 nM
